The values below come from patent publication US20090317382A1 (Genmab, published 2009).

Assay [1] concerns the target T1, human AChR from membrane extracts of TE671 cells (human, UniProt P02708 21-457; P11230 24-501; P07510 23-517; Q07001 22-517).
Another assay has as its target T2, AChR of rhesus monkeys (rhesus monkey (Macaca mulatta)).
T2 construct: In muscle tissue (sections of biopsies, or in the living animal); also called macaque AChR; monkey receptor
In words: immunohistochemistry of endplates in human and monkey biopsies, qualitative comparison of staining intensities.

For assay [2], the target named is T1, human AChR from membrane extracts of …. The source holds these as a separate data set.
In another assay the target is T3, C1q (3% rhesus serum) (Macaca mulatta).
T3 construct: native protein in 3% serum; also called rhesus C1q; C1q of rhesus monkey serum
In words: ELISA: IgG coated at varied concentration (the concentration is that of the coating), C1q binding read as OD405, 3% rhesus serum. Background: An ELISA detects its analyte on a solid surface through an enzyme-linked reagent.

Assay [3] concerns the target T4, human C1q (human, UniProt P02745 23-245; P02746 28-253; P02747 29-245).
T4 construct: The method names purified human C1q at 2 µg/ml; also called C1q (Quidel, A400); first component of the classical complement system
In words: ELISA: IgG coated at varied concentration (the concentration is that of the coating), C1q binding read as OD405, 3% human serum.
Procedure: (§1) Subsequently, plates were emptied. For the C3 and C4 ELISAs the wells were washed 3 times with 200 μl PBST (PBS supplemented with 0.05% (v/v) tween-20). Subsequently, for C1q ELISA, wells were incubated with 2 μg/mi human C1q (Quidel, San Diego, Calif., USA, A400) in C1q buffer (100 μl/well, 37° C., 1 h). […] After washing the plates (3×) with PBST for the C3 and C4 ELISA and C1q buffer for the C1q ELISA, for the C1q ELISA wells were incubated with rabbit anti-human C1q (DAKO, Glostrup, Denmark, A0136), diluted in C1q buffer (1:1000, 100 μl/well, room temperature, 1 h). […] After washing the plates (3×) with PBST for the C3 and C4 ELISA and C1q buffer for the C1q ELISA, for the C1q ELISA wells were incubated with HRP-conjugated swine anti-rabbit IgG-Fc (DAKO, P0399) diluted in ELISA buffer (1:2500, 100 μl/well, room temperature, 1 h). […] Absorbance was measured at 405 nm in an ELISA plate reader (Biotek Instruments Inc., Winooski, USA). To analyze, if complement activation by human IgG isotypes depends on the source of the complement, both human and rhesus serum were tested.

The target of assay [4] is T1, human AChR from membrane extracts of …. This is another data set of the same source.
For assay [5], the target named is T4, human C1q. In words: ELISA: IgG coated at varied concentration, C1q binding read as OD405; sheet heading '3% human serum'.

T4 sequence (P02745 23-245 limits assumed, chain 1 of 3): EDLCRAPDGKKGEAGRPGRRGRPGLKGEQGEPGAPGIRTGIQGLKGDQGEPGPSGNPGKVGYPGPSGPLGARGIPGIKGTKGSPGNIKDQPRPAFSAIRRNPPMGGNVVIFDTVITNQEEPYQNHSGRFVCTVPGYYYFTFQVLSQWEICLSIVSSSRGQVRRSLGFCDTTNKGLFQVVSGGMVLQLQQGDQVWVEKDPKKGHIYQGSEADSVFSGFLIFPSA
T4 sequence (P02746 28-253 limits assumed, chain 2 of 3): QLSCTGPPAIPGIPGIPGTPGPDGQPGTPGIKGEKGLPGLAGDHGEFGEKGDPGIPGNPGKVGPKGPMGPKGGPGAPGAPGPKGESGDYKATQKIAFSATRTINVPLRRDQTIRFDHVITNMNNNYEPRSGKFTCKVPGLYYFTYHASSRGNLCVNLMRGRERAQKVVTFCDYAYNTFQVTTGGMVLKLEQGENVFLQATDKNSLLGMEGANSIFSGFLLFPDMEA
T4 sequence (P02747 29-245 limits assumed, chain 3 of 3): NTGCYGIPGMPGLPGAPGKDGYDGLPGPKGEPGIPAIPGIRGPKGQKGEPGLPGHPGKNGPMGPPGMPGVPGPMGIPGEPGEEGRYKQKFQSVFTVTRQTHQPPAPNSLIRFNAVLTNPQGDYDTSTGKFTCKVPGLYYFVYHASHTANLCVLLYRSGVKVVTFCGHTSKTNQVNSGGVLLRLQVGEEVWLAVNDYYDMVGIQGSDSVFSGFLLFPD
Procedure for C1q (3% rhesus serum): as §1

B1: IgG1-637 (antibody)
heavy: not shown
VL: EIELTQPHSVSESPGKTVTISCTRSSGSIASNYVQWYQQRPGSSPTTVIYEDNQRPSGVPDRFSGSIDSSSNSASLTISGLKTEDEADYYCQSYDSNSGGRVFGGGTKLTVL
Regarding B1, the Kd (in general, the free concentration of one partner at which half of the binding sites on the other are occupied at equilibrium, for simple one-to-one binding) in assay [1] is approximately 1.7 nM. Also, in assay [1], the “precipitation of the flag tagged antibody, percent remaining at two fold excess” value is approximately 50%. Also, the “fold reduced affinity compared to human receptor” value in the assay with AChR of rhesus monkeys was approximately 10 fold. In addition, the “IC50 (read off the curve)” value in assay [2] is approximately 10 nM. Further, the EC50 (read off the curve) (in general, the concentration at which the effect is half-maximal) in the assay with C1q (3% rhesus serum) was approximately 2 µg/mL; with human C1q [3] it was approximately 2 µg/mL; in assay [4], approximately 3 nM.

B2: IgG4-637 (antibody)
heavy: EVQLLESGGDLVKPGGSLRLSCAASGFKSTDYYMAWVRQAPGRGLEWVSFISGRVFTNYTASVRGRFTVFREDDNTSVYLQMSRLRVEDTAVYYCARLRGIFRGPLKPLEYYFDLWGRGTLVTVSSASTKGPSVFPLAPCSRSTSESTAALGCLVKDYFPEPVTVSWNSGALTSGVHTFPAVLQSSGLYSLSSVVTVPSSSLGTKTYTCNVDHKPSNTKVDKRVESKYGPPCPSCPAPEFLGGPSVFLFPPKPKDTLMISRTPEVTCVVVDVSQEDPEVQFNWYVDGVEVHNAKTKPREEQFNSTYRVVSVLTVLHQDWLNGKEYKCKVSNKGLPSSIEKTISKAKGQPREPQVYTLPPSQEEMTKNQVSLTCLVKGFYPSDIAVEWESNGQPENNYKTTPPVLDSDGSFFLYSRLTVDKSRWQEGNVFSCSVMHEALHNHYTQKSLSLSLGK
light: EIELTQPHSVSESPGKTVTISCTRSSGSIASNYVQWYQQRPGSSPTTVIYEDNQRPSGVPDRFSGSIDSSSNSASLTISGLKTEDEADYYCQSYDSNSGGRVFGGGTKLTVLGQPKAAPSVTLFPPSSEELQANKATLVCLISDFYPGAVTVAWKADSSPVKAGVETTTPSKQSNNKYAASSYLSLTPEQWKSHRSYSCQVTHEGSTVEKTVAPTECS
notes: also called anti-MG
Consider B2, for which, in assay [1], the Kd was approximately 1.7 nM and the “precipitation of the flag tagged antibody, percent remaining at two fold excess” value is approximately 50%. For the same molecule, the “IC50 (read off the curve)” value in assay [2] was approximately 10 nM. Moreover, the binding result with human C1q [5] is “no binding”. Besides, in assay [4], the “EC50 (read off the curve)” value was approximately 3 nM.
